The values that follow are results of earlier work, collected in patent publication US11911476B2, “Process for preparing a drug delivery composition” (PK MED SAS, priority 2017, dated 2024).

For the data set the following is noted: temperature at which half of the drug loses its activity.

For Adalimumab, the denaturation temperature entry is “about 75 °C”.

Take lysozyme: the denaturation temperature was 76 °C.
